From US20250002588A1 (DIAGONAL THERAPEUTICS, published 2025)

Target: ALK-1/BMPR-2 receptor pair of the PathHunter U2Os dimerization cells (DiscoverX 93-0962C3) (UniProt P37023 22-503; Q13873 27-1038)
Test: cell-based or functional assay

Chain of ALK-1/BMPR-2 receptor pair of the PathHunter U2Os dimerization cells (DiscoverX 93-0962C3) (P37023 22-503, chain 1 of 2): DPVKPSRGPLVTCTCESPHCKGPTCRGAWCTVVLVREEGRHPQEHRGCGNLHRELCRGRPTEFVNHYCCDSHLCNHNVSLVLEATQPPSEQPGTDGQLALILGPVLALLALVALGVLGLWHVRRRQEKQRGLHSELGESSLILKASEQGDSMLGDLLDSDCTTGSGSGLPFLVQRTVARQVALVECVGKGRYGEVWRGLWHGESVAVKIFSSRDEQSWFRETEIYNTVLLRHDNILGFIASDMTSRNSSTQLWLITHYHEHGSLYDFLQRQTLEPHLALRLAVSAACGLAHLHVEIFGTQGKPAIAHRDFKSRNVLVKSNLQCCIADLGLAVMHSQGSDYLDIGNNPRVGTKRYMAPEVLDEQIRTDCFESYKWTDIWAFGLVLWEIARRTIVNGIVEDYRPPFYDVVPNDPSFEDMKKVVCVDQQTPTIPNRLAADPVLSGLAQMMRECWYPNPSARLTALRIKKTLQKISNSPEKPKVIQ
Chain of ALK-1/BMPR-2 receptor pair of the PathHunter U2Os dimerization cells (DiscoverX 93-0962C3) (Q13873 27-1038, chain 2 of 2): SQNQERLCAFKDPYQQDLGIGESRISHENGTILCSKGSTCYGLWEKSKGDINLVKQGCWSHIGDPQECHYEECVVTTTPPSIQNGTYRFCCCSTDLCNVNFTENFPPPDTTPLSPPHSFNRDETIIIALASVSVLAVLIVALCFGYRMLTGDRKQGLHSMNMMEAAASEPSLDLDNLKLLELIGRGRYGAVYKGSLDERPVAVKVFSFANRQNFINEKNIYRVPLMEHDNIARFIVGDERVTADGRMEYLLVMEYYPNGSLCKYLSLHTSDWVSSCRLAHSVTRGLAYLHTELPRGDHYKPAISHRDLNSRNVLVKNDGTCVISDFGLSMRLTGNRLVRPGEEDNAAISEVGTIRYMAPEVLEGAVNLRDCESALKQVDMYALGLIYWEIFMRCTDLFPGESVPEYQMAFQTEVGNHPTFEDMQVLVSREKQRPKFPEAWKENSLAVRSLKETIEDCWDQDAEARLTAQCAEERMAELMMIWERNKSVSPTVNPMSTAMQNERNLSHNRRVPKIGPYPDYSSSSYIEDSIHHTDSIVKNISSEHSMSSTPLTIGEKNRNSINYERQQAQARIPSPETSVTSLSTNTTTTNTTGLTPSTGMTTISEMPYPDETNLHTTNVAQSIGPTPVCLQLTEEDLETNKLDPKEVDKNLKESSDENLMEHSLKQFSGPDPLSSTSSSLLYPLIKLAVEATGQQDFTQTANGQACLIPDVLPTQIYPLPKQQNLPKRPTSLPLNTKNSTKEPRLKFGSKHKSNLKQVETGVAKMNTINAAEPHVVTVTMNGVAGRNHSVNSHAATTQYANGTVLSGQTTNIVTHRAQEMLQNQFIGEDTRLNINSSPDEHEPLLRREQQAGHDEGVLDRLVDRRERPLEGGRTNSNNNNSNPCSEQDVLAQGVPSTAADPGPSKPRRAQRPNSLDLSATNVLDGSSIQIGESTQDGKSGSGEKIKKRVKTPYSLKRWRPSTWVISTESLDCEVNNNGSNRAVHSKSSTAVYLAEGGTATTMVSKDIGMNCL

| % Emax BMP9 [%] | EC50 [nM] | Emax (RLU) | Binder |
| --- | --- | --- | --- |
| 56 | 0.08 | 1.47e+06 | DGL285 (bispecific antibody) EVQLLESGGGLVQPGGSLRLSCAASGFTFSIYAMSWVRQAPGKGLEWVSAISGSGGSTYYADSVKGRFTISRDNSKNTLYLQMNSLRAEDTAVYYCARDFDYWGQGTLVTVTSSGGGGSGGGGSGGGGSQSVLTQPPSASGTPGQRVTISCSGSSSNIGSNYVYWYQQLPGTAPKLLIYGNINRPSGVPDRFSGSKSGTSASLAISGLRSEDEADYYCAAWDDSLNGRVFGGGTKLTVLDKGPSVFPLAPEPKSSEVQLLESGGGLVQPGGSLRLSCAASGFTFSNAWMNWVRQAPGKGLEWVSSISSSSSYIYYADSVKGRFTISRDNSKNTLYLQMNSLRAEDTAVYYCARAVAAGGMFWGLDQWGQGTLVTVTSSGGGGSGGGGSGGGGSQSVLTQPPSASGTPGQRVTISCSGSRSNIGSNSVHWYQQLPGTAPKLLIYGNSNRPSGVPDRFSGSKSGTSASLAISGLRSEDEADYYCQSYDSSLNDHVVFGGGTKLTVLDKTHTCPPCPAPEAAGAPSVFLFPPKPKDTLMISRTPEVTCVVVDVSHEDPEVKFNWYVDGVEVHNAKTKPREEQYNSTYRVVSVLTVLHQDWLNGKEYKCKVSNKALPAPIEKTISKAKGQPREPQVYTLPPSRDELTKNQVSLTCLVKGFYPSDIAVEWESNGQPENNYKTTPPVLDSDGSFFLYSKLTVDKSRWQQGNVFSCSVMHEALHNHYTQKSLSLSPG |
| 42 | 330 | 1.11e+06 | DGL281 (bispecific antibody, human IgG1, lambda) heavy: not shown light: not shown EVQLLESGGGLVQPGGSLRLSCAASGFTFSDYYMTWIRQAPGKGLEWVSSISGGSTYYADSRKGRFTISRDNSENTLYLQMNSLRAEDTAVYYCARDFGVAGWFGQYGMDVWGQGTLVTVSSGGGGSGGGGSGGGGSQSVLTQPPSASGTPGQRVTISCTGSSSNIGAGYDVHWYQQLPGTAPKLLIYRSNQRPSGVPDRFSGSKSGTSASLAISGLRSEDEADYYCSSYAGNYNLVFGGGTKLTVLDKTHTCPPCPAPEAAGAPSVFLFPPKPKDTLMISRTPEVTCVVVDVSHEDPEVKFNWYVDGVEVHNAKTKPREEQYNSTYRVVSVLTVLHQDWLNGKEYKCKVSNKALPAPIEKTISKAKGQPREPQVCTLPPSRDELTKNQVSLSCAVKGFYPSDIAVEWESNGQPENNYKTTPPVLDSDGSFFLVSKLTVDKSRWQQGNVFSCSVMHEALHNHYTQKSLSLSPGKWSHPQFEK |
| 48 | 0.04 | 1.26e+06 | DGL287 (bispecific antibody) EVQLLESGGGLVQPGGSLRLSCAASGFTFSSYAMSWVRQAPGKGLEWVANINQDGSEKNYVDSMRGRFTISRDNSKNTLYLQMNSLRAEDTAVYYCAREFDYWGQGTLVTVTSSGGGGSGGGGSGGGGSQSVLAQPPSASGTPGQRVTISCSGSSSNIGSNYVYWYQQLPGTAPKLLIYGNNKRPSGVPDRFSGSKSGTSASLAISGLRSEDEADYYCAAWDDSLNGRVFGGGTKLTVLDKGPSVFPLAPEPKSSEVQLLESGGGLVQPGGSLRLSCAASGFTFSDYYMTWIRQAPGKGLEWVSSISGGSTYYADSRKGRFTISRDNSENTLYLQMNSLRAEDTAVYYCARDFGVAGWFGQYGMDVWGQGTLVTVSSGGGGSGGGGSGGGGSQSVLTQPPSASGTPGQRVTISCTGSSSNIGAGYDVHWYQQLPGTAPKLLIYRSNQRPSGVPDRFSGSKSGTSASLAISGLRSEDEADYYCSSYAGNYNLVFGGGTKLTVLDKTHTCPPCPAPEAAGAPSVFLFPPKPKDTLMISRTPEVTCVVVDVSHEDPEVKFNWYVDGVEVHNAKTKPREEQYNSTYRVVSVLTVLHQDWLNGKEYKCKVSNKALPAPIEKTISKAKGQPREPQVYTLPPSRDELTKNQVSLTCLVKGFYPSDIAVEWESNGQPENNYKTTPPVLDSDGSFFLYSKLTVDKSRWQQGNVFSCSVMHEALHNHYTQKSLSLSPG |
| 68 | 0.2 | 1.8e+06 | DGL286 (bispecific antibody) EVQLLESGGGLVQPGGSLRLSCAASGFTFSNAWMNWVRQAPGKGLEWVSSISSSSSYIYYADSVKGRFTISRDNSKNTLYLQMNSLRAEDTAVYYCARAVAAGGMFWGLDQWGQGTLVTVTSSGGGGSGGGGSGGGGSQSVLTQPPSASGTPGQRVTISCSGSRSNIGSNSVHWYQQLPGTAPKLLIYGNSNRPSGVPDRFSGSKSGTSASLAISGLRSEDEADYYCQSYDSSLNDHVVFGGGTKLTVLDKGPSVFPLAPEPKSSEVQLLESGGGLVQPGGSLRLSCAASGFTFSIYAMSWVRQAPGKGLEWVSAISGSGGSTYYADSVKGRFTISRDNSKNTLYLQMNSLRAEDTAVYYCARDFDYWGQGTLVTVTSSGGGGSGGGGSGGGGSQSVLTQPPSASGTPGQRVTISCSGSSSNIGSNYVYWYQQLPGTAPKLLIYGNINRPSGVPDRFSGSKSGTSASLAISGLRSEDEADYYCAAWDDSLNGRVFGGGTKLTVLDKTHTCPPCPAPEAAGAPSVFLFPPKPKDTLMISRTPEVTCVVVDVSHEDPEVKFNWYVDGVEVHNAKTKPREEQYNSTYRVVSVLTVLHQDWLNGKEYKCKVSNKALPAPIEKTISKAKGQPREPQVYTLPPSRDELTKNQVSLTCLVKGFYPSDIAVEWESNGQPENNYKTTPPVLDSDGSFFLYSKLTVDKSRWQQGNVFSCSVMHEALHNHYTQKSLSLSPG |
| 36 | 170 | 954000 | DGL282 (bispecific antibody, human IgG1, lambda) heavy 1: EVQLLESGGGLVQPGGSLRLSCAASGFTFSIYAMSWVRQAPGKGLEWVSAISGSGGSTYYADSVKGRFTISRDNSKNTLYLQMNSLRAEDTAVYYCARDFDYWGQGTLVTVTSSASVAAPSVFIFPPSDEQLKSGTASVVCLLNNFYPREAKVQWKVDNALQSGNSQESVTEQDSKDSTYSLSSTLTLSKADYEKHKVYACEVTHQGLSSPVTKSFNRGECDKTHTCPPCPAPEAAGAPSVFLFPPKPKDTLMISRTPEVTCVVVDVSHEDPEVKFNWYVDGVEVHNAKTKPREEQYNSTYRVVSVLTVLHQDWLNGKEYKCKVSNKALPAPIEKTISKAKGQPREPQVCTLPPSRDELTKNQVSLSCAVKGFYPSDIAVEWESNGQPENNYKTTPPVLDSDGSFFLVSKLTVDKSRWQQGNVFSCSVMHEALHNHYTQKSLSLSPGWSHPQFEK light 1: QSVLTQPPSASGTPGQRVTISCSGSSSNIGSNYVYWYQQLPGTAPKLLIYGNINRPSGVPDRFSGSKSGTSASLAISGLRSEDEADYYCAAWDDSLNGRVFGGGTKLTVLSSASTKGPSVFPLAPSSKSTSGGTAALGCLVKDYFPEPVTVSWNSGALTSGVHTFPAVLQSSGLYSLSSVVTVPSSSLGTQTYICNVNHKPSNTKVDKKVEPKSC heavy 2: not shown light 2: not shown |
| 33 | 28 | 879000 | DGL283 (bispecific antibody, human IgG1, lambda) heavy 1: EVQLLESGGGLVQPGGSLRLSCAASGFTFSSYAMSWVRQAPGKGLEWVANINQDGSEKNYVDSMRGRFTISRDNSKNTLYLQMNSLRAEDTAVYYCAREFDYWGQGTLVTVTSSASVAAPSVFIFPPSDEQLKSGTASVVCLLNNFYPREAKVQWKVDNALQSGNSQESVTEQDSKDSTYSLSSTLTLSKADYEKHKVYACEVTHQGLSSPVTKSFNRGECDKTHTCPPCPAPEAAGAPSVFLFPPKPKDTLMISRTPEVTCVVVDVSHEDPEVKFNWYVDGVEVHNAKTKPREEQYNSTYRVVSVLTVLHQDWLNGKEYKCKVSNKALPAPIEKTISKAKGQPREPQVCTLPPSRDELTKNQVSLSCAVKGFYPSDIAVEWESNGQPENNYKTTPPVLDSDGSFFLVSKLTVDKSRWQQGNVFSCSVMHEALHNHYTQKSLSLSPGWSHPQFEK light 1: QSVLAQPPSASGTPGQRVTISCSGSSSNIGSNYVYWYQQLPGTAPKLLIYGNNKRPSGVPDRFSGSKSGTSASLAISGLRSEDEADYYCAAWDDSLNGRVFGGGTKLTVLSSASTKGPSVFPLAPSSKSTSGGTAALGCLVKDYFPEPVTVSWNSGALTSGVHTFPAVLQSSGLYSLSSVVTVPSSSLGTQTYICNVNHKPSNTKVDKKVEPKSC heavy 2: not shown light 2: not shown |
| 76 | 0.07 | 2e+06 | DGL288 (bispecific antibody) EVQLLESGGGLVQPGGSLRLSCAASGFTFSDYYMTWIRQAPGKGLEWVSSISGGSTYYADSRKGRFTISRDNSENTLYLQMNSLRAEDTAVYYCARDFGVAGWFGQYGMDVWGQGTLVTVSSGGGGSGGGGSGGGGSQSVLTQPPSASGTPGQRVTISCTGSSSNIGAGYDVHWYQQLPGTAPKLLIYRSNQRPSGVPDRFSGSKSGTSASLAISGLRSEDEADYYCSSYAGNYNLVFGGGTKLTVLDKGPSVFPLAPEPKSSEVQLLESGGGLVQPGGSLRLSCAASGFTFSSYAMSWVRQAPGKGLEWVANINQDGSEKNYVDSMRGRFTISRDNSKNTLYLQMNSLRAEDTAVYYCAREFDYWGQGTLVTVTSSGGGGSGGGGSGGGGSQSVLAQPPSASGTPGQRVTISCSGSSSNIGSNYVYWYQQLPGTAPKLLIYGNNKRPSGVPDRFSGSKSGTSASLAISGLRSEDEADYYCAAWDDSLNGRVFGGGTKLTVLDKTHTCPPCPAPEAAGAPSVFLFPPKPKDTLMISRTPEVTCVVVDVSHEDPEVKFNWYVDGVEVHNAKTKPREEQYNSTYRVVSVLTVLHQDWLNGKEYKCKVSNKALPAPIEKTISKAKGQPREPQVYTLPPSRDELTKNQVSLTCLVKGFYPSDIAVEWESNGQPENNYKTTPPVLDSDGSFFLYSKLTVDKSRWQQGNVFSCSVMHEALHNHYTQKSLSLSPG |
